Reference: US20020127539A1, “Assays for identifying receptors having alterations in signaling” (priority 2000, published 2002)

Experiments:
[1] = molecular target: wild-type rat mu opioid receptor (rat); test: cell-based or functional assay
[2] = molecular target: Asn150Ala mutant rat mu opioid receptor (rat); test: cell-based or functional assay

What does the source list for “[D-Ala2-MePhe4, Gly-ol5]enkephalin (peptide)”?
Average Ligand Stimulated Activity (Light Emission), SRE-Luc + Gq5i luciferase reporter in HEK293 cells (light emission) [1]: 87500; Average Ligand Stimulated Activity (Light Emission), SRE-Luc + Gq5i luciferase reporter in HEK293 cells (light emission) [2]: 87000
